± gives the standard deviation of the averaged measurements.

This series concerns ATP. The series can be described thus: switch fluorescence ratio, 500 uM ATP over buffer (Cy3 cluster intensity, sum of 5 cycles each) (fold (ratio)); higher = stronger signal-on switching upon ATP binding; sequences stand for … in TCGTCGGCAGCGTCAGATGTGTATAAGAGACAGTTTTTTTTTTTTTTTTTTTTTTTTT…TC. To be noted: aptamer strand: ATP DNA aptamer (quencher-CACCTGGGGGAGTATTGCGGAGGAAGG + anchor), 100 nM annealed; ATP concentration: 500 uM. In a few lines: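 Values give the fluorescence ratio for each switch-domain sequence, averaged from per-cluster ratios of summed target-cycle to summed buffer-cycle Cy3 intensity. The Cy3-labelled switching-strand clusters sat on a modified Illumina MiSeq flow-cell, were annealed to 100 nM quencher-labelled ATP aptamer, and were imaged in selection buffer, then after 15 min with 500 uM ATP at 22 °C. Five cycles ran with NaOH stripping and re-annealing between them, and clusters outside 100-1000 RFU were excluded.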
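Also: ATP exposure 15 min at 22 °C before imaging.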

As for GTAATAAGAT, the switch fluorescence ratio turned out to be 0.996 ± 0.0046.
Consider GTAATAAGGA, for which the switch fluorescence ratio was 0.994 ± 0.029.
As for GTAATAATTT, the switch fluorescence ratio came out at 0.9982 ± 0.0034.
In the case of GTAATAGAGA, the switch fluorescence ratio amounted to 1.01 ± 0.043.
GTAATCGCAA: the switch fluorescence ratio came out at 2.65 ± 0.15.
Consider GTAATGGATC, for which the switch fluorescence ratio was 0.986 ± 0.042.
As to GTAATGTCTT, the switch fluorescence ratio was 0.9797 ± 0.0084.
Next, GTAATTAGAT: 0.969 ± 0.022; GTAATTTAGT: 1.02 ± 0.022; GTAATTTATC: 1.0089 ± 0.00052.
GTAATTTATG: the switch fluorescence ratio is 1.01 ± 0.02.
As for GTAATTTGGT, the switch fluorescence ratio turned out to be 0.9904 ± 0.0032.
GTACGGGGAA: the switch fluorescence ratio came out at 1.04 ± 0.03.
Consider GTACGGGGGT, for which the switch fluorescence ratio came out at 0.996 ± 0.059.
Take GTACTAGTAT: the switch fluorescence ratio came to 0.977 ± 0.023.
On to GTACTGGATT, for which the switch fluorescence ratio was determined as 0.988 ± 0.035.
Regarding GTACTGTAGG, the switch fluorescence ratio is 1 ± 0.026.
For GTACTTGGCT, the switch fluorescence ratio was 1.016 ± 0.0023.
As to GTACTTTCGG, the switch fluorescence ratio worked out at 0.98 ± 0.015.
Consider GTAGAAAAAA, for which the switch fluorescence ratio is 1.002 ± 0.01.
In the case of GTAGAAAGTA, the switch fluorescence ratio was found to be 0.973 ± 0.031.
For GTAGAAGGGT, the switch fluorescence ratio was 1.01 ± 0.016.
The figure for GTAGCCCGGG is 0.993 ± 0.026.
GTAGCGGCTG: the switch fluorescence ratio amounted to 1.037 ± 0.01.
Turning to GTAGCTATAT, the switch fluorescence ratio amounted to 4.08 ± 0.14.
The figure for GTAGGACGTC is 1.02 ± 0.011; for GTAGGCGGGG it is 0.99 ± 0.018.
As to GTAGGCTAGT, the switch fluorescence ratio stood at 1 ± 0.033.
Turning to GTAGGGAACC, the switch fluorescence ratio amounted to 0.976 ± 0.025.
Consider GTAGGGGGGT, for which the switch fluorescence ratio is 1.07 ± 0.21.
On to GTAGGGGGTT, for which the switch fluorescence ratio came to 0.9951 ± 0.0041.
With GTAGGGTCAG, the switch fluorescence ratio turned out to be 0.994 ± 0.027.
GTAGTAGCGG: the switch fluorescence ratio worked out at 1.02 ± 0.025.
GTAGTCTAGA: the switch fluorescence ratio amounted to 0.965 ± 0.024.
With GTAGTTACGG, the switch fluorescence ratio was 1.05 ± 0.019.
Turning to GTAGTTAGGG, the switch fluorescence ratio worked out at 1.02 ± 0.015.
As to GTAGTTCGGG, the switch fluorescence ratio amounted to 0.997 ± 0.036.
Consider GTAGTTTTGC, for which the switch fluorescence ratio amounted to 1.0341 ± 0.00013.
Next, GTATAAAGGG: 1.02 ± 0.048; GTATAAGAGC: 0.985 ± 0.033.
Take GTATAATTGT: the switch fluorescence ratio was 0.984 ± 0.019.
As for GTATAATTTG, the switch fluorescence ratio stood at 0.9933 ± 0.0019.
With GTATACATTG, the switch fluorescence ratio amounted to 1.02 ± 0.027.
Consider GTATAGTCGG, for which the switch fluorescence ratio is 1.04 ± 0.017.
Next, GTATATGGTC: 1.02 ± 0.03; GTATCCTATA: 1 ± 0.017; GTATCTAGTT: 0.996 ± 0.024.
On to GTATGAATCG, for which the switch fluorescence ratio was found to be 0.961 ± 0.056.
The figure for GTATGAATGT is 0.985 ± 0.03; for GTATGAATTA it is 0.985 ± 0.033; for GTATGACAGT it is 1.02 ± 0.032.
With GTATGGGTTT, the switch fluorescence ratio is 0.975 ± 0.012.
For the sequence GTATGGTAGG, the switch fluorescence ratio came to 1.03 ± 0.05.
In the case of GTATGTCCCC, the switch fluorescence ratio is 1.0169 ± 0.00096.
GTATTAAAGC: the switch fluorescence ratio worked out at 1.024 ± 0.0052.
As to GTATTAGGGG, the switch fluorescence ratio was determined as 1.01 ± 0.028.
GTATTATGGG: the switch fluorescence ratio was found to be 1 ± 0.029.
The figure for GTATTATTAA is 1.05 ± 0.0015.
In the case of GTATTGGATA, the switch fluorescence ratio came to 0.998 ± 0.042.
Next, GTATTGGGTT: 1 ± 0.056; GTATTTCCGG: 0.9965 ± 0.0056; GTATTTTTTG: 0.9958 ± 0.0069.
Regarding GTCAAATATG, the switch fluorescence ratio turned out to be 0.9678 ± 0.0028.
On to GTCAGAACG, for which the switch fluorescence ratio is 1.03 ± 0.014.
Consider GTCAGCAAAT, for which the switch fluorescence ratio is 1.05 ± 0.02.
Take GTCATAAGTG: the switch fluorescence ratio worked out at 0.982 ± 0.04.
Consider GTCATACCTT, for which the switch fluorescence ratio worked out at 1.2 ± 0.1.
For the sequence GTCATCAGTG, the switch fluorescence ratio was 1.02 ± 0.027.
As to GTCATGAGAT, the switch fluorescence ratio came out at 0.9987 ± 0.0047.
In the case of GTCATTAGCG, the switch fluorescence ratio came out at 0.973 ± 0.012.
GTCCAAATGG: the switch fluorescence ratio is 0.999 ± 0.022.
With GTCCACAGGT, the switch fluorescence ratio amounted to 1.69 ± 0.056.
As to GTCCAGGGGA, the switch fluorescence ratio is 1.04 ± 0.1.
The figure for GTCCATAGGT is 1.02 ± 0.013; for GTCCGCCTTG it is 1.07 ± 0.011.
GTCCGGCAAT: the switch fluorescence ratio was determined as 2.04 ± 0.33.
For GTCCGGGGTC, the switch fluorescence ratio is 0.972 ± 0.065.
In the case of GTCCTTTCTG, the switch fluorescence ratio was 0.988 ± 0.014.
Take GTCGAAACAT: the switch fluorescence ratio was 1.04 ± 0.075.
Turning to GTCGAAGGTG, the switch fluorescence ratio amounted to 1.11 ± 0.03.
In the case of GTCGATATTT, the switch fluorescence ratio worked out at 1.01 ± 0.026.
The figure for GTCGGACGGA is 0.971 ± 0.042.
With GTCGGATGTG, the switch fluorescence ratio amounted to 0.954 ± 0.044.
On to GTCGGGGATA, for which the switch fluorescence ratio was determined as 1 ± 0.049.
Next, GTCGGGGGGG: 0.999 ± 0.031; GTCGGGGGTT: 1.02 ± 0.049; GTCGGTCTGG: 1 ± 0.098.
Regarding GTCGTAAGTT, the switch fluorescence ratio is 1.01 ± 0.024.
Regarding GTCGTAGGGA, the switch fluorescence ratio is 0.973 ± 0.013.
GTCGTCAAGT: the switch fluorescence ratio amounted to 1.006 ± 0.0073.
As for GTCGTTGCTA, the switch fluorescence ratio was 1.01 ± 0.015.
For the sequence GTCTAATAGT, the switch fluorescence ratio is 1.03 ± 0.015.
As for GTCTACTGCT, the switch fluorescence ratio is 1.07 ± 0.028.
For GTCTGAAGGG, the switch fluorescence ratio turned out to be 1.0152 ± 0.0004.
As for GTCTGGGCGA, the switch fluorescence ratio was determined as 1.01 ± 0.033.
On to GTCTTTTACG, for which the switch fluorescence ratio is 1.005 ± 0.0013.
As to GTCTTTTTAA, the switch fluorescence ratio came out at 1.03 ± 0.032.
On to GTGAAAGGCA, for which the switch fluorescence ratio came to 1.004 ± 0.005.
As to GTGAAAGGGC, the switch fluorescence ratio amounted to 1.01 ± 0.034.
Consider GTGAAATTTT, for which the switch fluorescence ratio was found to be 1.01 ± 0.039.
In the case of GTGAAGAAGA, the switch fluorescence ratio amounted to 0.991 ± 0.0048.
In the case of GTGAAGGGGT, the switch fluorescence ratio was 1 ± 0.047.
For the sequence GTGAAGTATT, the switch fluorescence ratio came to 0.983 ± 0.033.
As for GTGACCAGAA, the switch fluorescence ratio came to 0.983 ± 0.025.
On to GTGACCGCCC, for which the switch fluorescence ratio is 1.49 ± 0.39.
Regarding GTGACTTAGT, the switch fluorescence ratio stood at 1.03 ± 0.02.
In the case of GTGACTTCAA, the switch fluorescence ratio is 1.027 ± 0.0059.
Turning to GTGAGAAAGG, the switch fluorescence ratio came to 0.982 ± 0.015.
GTGAGAATGT: the switch fluorescence ratio was found to be 1.02 ± 0.02.
On to GTGAGAATTT, for which the switch fluorescence ratio worked out at 1.05 ± 0.075.
Next, GTGAGAGGTG: 1.05 ± 0.052.
With GTGAGCTCAT, the switch fluorescence ratio is 1.01 ± 0.04.
For the sequence GTGAGGACAA, the switch fluorescence ratio is 1.05 ± 0.036.
As to GTGAGGCGGA, the switch fluorescence ratio turned out to be 1.07 ± 0.087.
With GTGAGGGGTT, the switch fluorescence ratio is 0.971 ± 0.044.
Take GTGAGTAAGG: the switch fluorescence ratio is 0.9778 ± 0.00085.
For the sequence GTGAGTACTT, the switch fluorescence ratio came out at 1.03 ± 0.014.
For the sequence GTGAGTCGGG, the switch fluorescence ratio was found to be 0.987 ± 0.02.
As to GTGAGTTTTT, the switch fluorescence ratio was 1.02 ± 0.022.
For GTGATAAGAA, the switch fluorescence ratio is 1.009 ± 0.0057.

Source of the values: the supplement of paper PMC10126150.
